What was measured:
[1] = target: ZV54^ΔXF (ZV54 mAb expressed in glycoengineered ΔXF N. benthamiana plants); assay: SPR; details: remark: other sources report otherwise
[2] = target: ZV54^CHO (CHO cell-derived ZV54 mAb); assay: SPR; details: remark: other sources report otherwise

B1: recombinant human FcγRIIA ectodomain, P12318 34-217 (receptor)
chain: QAAAPPKAVLKLEPPWINVLQEDSVTLTCQGARSPESDSIQWFHNGNLIPTHTQPSYRFKANNNDSGEYTCQTGQTSLSDPVHLTVLSEWLVLQTPHLEFQEGETIMLRCHSWKDKPLVKVTFFQNGKSQKFSHLDPTFSIPQANHSHSGDYHCTGNIGYTLFSSKPVTITVQVPSMGSSSPMG
modifications: not checked
**Q.** Which Kd [1] does the source give for B1 here?
**A.** 1890 nM

**Q.** And the Kd [2]?
**A.** 662 nM

Reference: article PMC10221487
